In patent publication US8822640B2, “Tetrameric streptavidin mutein with reversible biotin binding capability” (UTI Limited Partnership, priority 2011, dated 2014):

Key:
[1] = Biotin binding data taken from literature / U.S. Pat. No. 6,312,916 B1; details: for t1/2, half-life of biotin in the SAV-biotin complex: estimated as 0.693/koff/60 from the cited koff
[2] = test system: biotinylated protein G and biotinylated IgG; assay: Mutein-agarose affinity matrix: purification of biotinylated proteins, matrix stability and reuse; details: comparison of FIGS. 7 and 10
Description: Other methods. BIAcore biosensor for determining the kinetic parameters, preparation of streptavidin-agarose matrix and purification of biotinylated proteins were performed as previously described (Wu and Wong, 2005a; Wu and Wong, 2005b).
Stable subunit interactions in the 8-aa-loop-H127 mutein. The purified 8-aa-loop-H127C mutein can be immobilized to the agarose matrix with an estimated concentration of 3.8 mg/ml of settled agarose beads. […] Since it is likely that only one subunit in an tetrameric 8-aa-loop-H127C mutein was chemically coupled to the matrix (the other three subunits associated with the immobilized subunit via non-covalent interactions), this observation illustrates that the subunit interactions between the subunits in the tetrameric 8-aa-loop-H127C mutein were stable enough and the non-covalently associated subunits were not washed off from the column under the conditions used for the binding, washing and elution processes.
Application of the 8-aa-loop-H127C mutein-agarose matrices for purification of biotinylated protein G and biotinylated IgG. […] The bound biotinylated proteins could be eluted off from the column using 4 mM biotin (FIGS. 7 and 8).

[3] = data from U.S. Pat. No. 6,312,916 B1, cited from earlier work

B1: SAV mutein from Roche: commercially available streptavidin mutein with reversible biotin binding, changes S27R, S45R and L110W (U.S. Pat. No. 6,312,916 B1) (protein)
chain: AEAGITGTWYNQLGRTFIVTAGADGALTGTYERAVGNAESRYVLTGRYDSAPATDGSGTALGWTVAWKNNYRNAHSATTWSGQYVGGAEARINTQWLWTSGTTEANAWKSTLVGHDTFTKVKPSAAS
- t1/2, half-life of biotin in the SAV-biotin complex [1]: 1.96 min
- t1/2, half-life of biotin in the SAV-biotin complex ([1]; listed as Roche mutein): 1.9 min
- biotin binding affinity lower than that of the 8-aa-loop-H127C mutein ([1]; ratio of Kd values): ~10 fold
- half-life of biotin in the SAV-biotin complex shorter than that of the 8-aa-loop-H127C mutein ([1]; ratio of t1/2 values): ~14 fold
- binding capacity of the matrix for biotinylated protein G [2]: significantly less than that of the 8-aa-loop-H127C mutein
- ka or kon [3]: 45000 M⁻¹ s⁻¹
- kd or koff [3]: 0.0059 s⁻¹
- Kd ([3]; read-out: Kd (biotin binding affinity)): 130 nM
